Measured values taken from patent publication US10273305B2, “Bispecific CXCR4-CD4 polypeptides with potent anti-HIV activity” (Ablynx N.V., priority 2015, dated 2019).
Substitutions are numbered along the chain they refer to.

B1: 281E10: anti-CXCR4 Nanobody, SEQ ID NO: 6 (protein)
VHH: EVQLVESGGGLVQAGGSLRLSCKASGGTFNNYAMGWFRRAPGKEREFVAAITRSGVRSGVSAIYGDSVKDRFTISRDNVKNTLYLQMNTLKPEDTAVYTCAASAIGSGALRRFEYDYSGQGTQVTVSS
modifications: Nanobody Sequence
B2: 283B6: anti-CXCR4 Nanobody, SEQ ID NO: 10 (protein)
VHH: EVQLVASGGGLVQAGGSLRLSCAVSGTTFSVATLGWYRQAPGQQRALVADISSGGSTNYADSVRGRFTISRDNAKNLAYLQMNSLKPEDTAVYYCNARTSGWRTRSNYWGQGTQVTVSS
modifications: Nanobody Sequence
B3: 283E2: anti-CXCR4 Nanobody, SEQ ID NO: 11 (protein)
VHH: B2 VHH with A6E
modifications: Nanobody Sequence
B4: 281A5: anti-CXCR4 Nanobody, SEQ ID NO: 5 (protein)
VHH: B1 VHH with K23A, G27R, V79A, T89S
modifications: Nanobody Sequence
B5: 283F1: anti-CXCR4 Nanobody, SEQ ID NO: 12 (protein)
VHH: EVQLVESGGGLVQAGGSLRLSCVASVNIFGSIAMAWYRQAPGKQRNLVASISSGGRINYADSRKGRFTISRDNTKNTVHLQMNSLEPEDTAVYYCAAGRIGQRTLTFTPDYWGQGTQVTVSS
modifications: Nanobody Sequence
B6: 281D4: anti-CXCR4 Nanobody, SEQ ID NO: 7 (protein)
VHH: B1 VHH with K23A, T52S, S58T, I63L, V79A, T89K, L90M, Y117S
modifications: Nanobody Sequence
B7: 281A6: anti-CXCR4 Nanobody, SEQ ID NO: 8 (protein)
VHH: B1 VHH with A14T, K23A, T52S, S58T, I63L, V79A, T89K, L90M, Y117S
modifications: Nanobody Sequence
B8: 01B6: anti-CD4 Nanobody, SEQ ID NO: 17 (protein)
VHH: EVQLVESGGGLVQSGGSLRLSCAASGFTFSGYWMYWVRQAPGKGLEWVSAISPGGGSTYYPDSVKGRFTISRDNAKNTLYLQMNSLKPEDTALYYCASSLTATHTYEYDYWGQGTQVTVSS
modifications: Nanobody Sequence
B9: 281F12-35GS-3F11: bispecific CXCR4-CD4 polypeptide, SEQ ID NO: 106 (protein)
chain: EVQLVESGGGLVQAGDSLRLSCAASGRAFSRYAMGWFRQAPGKEREFVAAIGWGPSKTNYADSVKGRFTISRDNAKNTVYLQMNTLKPEDTAVYSCAAKFVNTDSTWSRSEMYTYWGQGTQVTVSSGGGGSGGGGSGGGGSGGGGSGGGGSGGGGSGGGGSEVQLVESGGGSVQPGGSLTLSCGTSGRTFNVMGWFRQAPGKEREFVAAVRWSSTGIYYTQYADSVKSRFTISRDNAKNTVYLEMNSLKPEDTAVYYCAADTYNSNPARWDGYDFRGQGTQVTVSS
modifications: chains of the parent or of the whole protein
B10: 15G11: anti-CXCR4 Nanobody, SEQ ID NO: 14 (protein)
VHH: EVQLVESGGGLVQAGDSLRVSCAASGRTSSYAMAWFRQAPGKEREFVGTISRTNSRTKYADFVEGRFTISRDNAKSTLSLQMTSLKPEDTAVYYCAAKWTGNSYHDYTWSKVDEYNVWGQGTQVTVSS
modifications: Nanobody Sequence
B11: 15A1: anti-CXCR4 Nanobody, SEQ ID NO: 15 (protein)
VHH: EVQLVESGGGLVQAGGSLRLSCAASGRTFSRAAMGWFRQAPGKEREFVGCALSSAGSALTADSVKGRFTISRDNAKNMVYLQMNNLKPEDTAVYSCVAGGYCTRAGVYPYWGQGTQVTVSS
modifications: Nanobody Sequence

test system: HIV-1 CI#17 clinical isolate (clade B); assay: HIV-1 CI#17 infection of PBMCs, p24; assay type: cell-based; details: PBMC, average 2 donors

Which results are given for B1?
IC50: 1.3 nM; IC90: 8.1 nM

Which results are given for B2?
IC50: 2.8 nM; IC90: 9.9 nM

With B3 as the molecule, how does the IC50 read?
Its IC50 is 3.7 nM.

For B4, which IC50 is on record?
Its IC50 is 12 nM.

And the IC90?
Its IC90 is > 57 nM.

What does the source list for B5?
IC50: 2 nM; IC90: 9.1 nM

For B6, which IC50 is on record?
The IC50 was 15 nM.

And the IC90?
Its IC90 is 33 nM.

For B7, which IC50 is on record?
Its IC50 is 20 nM.

And the IC90?
Its IC90 is 61 nM.

molecular target: interaction of CD4 with the viral gp120 protein (Homo sapiens, UniProt P01730); assay: ELISA-based competition of CD4-gp120 interaction; assay type: binding; details: 500 nM Nanobody; gp120 HIV-1 IIIB
Protocol: Besides its role on T-cells, CD4 also serves as primary receptor for HIV entry. Therefore purified CD4 Nanobodies were analysed for the capacity to block the interaction of CD4 with the viral gp120 protein. Monovalent His-tagged Nanobodies were purified from periplasmic extracts by affinity and desalting chromatography and used in an ELISA-based competition setup. In short, 1 μg/ml of gp120 HIV-1 IIIB (Immunodiagnostic) was captured by 20 μg/ml of sheep anti-gp120 antibody D7324 (Aalto Bio Reagents) previously coated in 96 well Maxisorp microtiter plates (Nunc) and blocked with 1% casein in PBS. In parallel, 0.5 μg/ml of biotinylated CD4 was incubated with 500 nM of the different purified Nanobodies in 100 μl 0.1% Casein/PBS. After 1 hour, the biotinylated CD4-Nanobody pre-mixes were incubated 1 hour with the captured gp120. Bound biotinylated CD4 was detected using HRP-conjugated Extravidin (Sigma E2886). A blocking mouse anti-CD4 IgG2a antibody (Diaclone, clone B-A1 cat#854.030.000) was used as positive control. Blocking activity was determined as loss of O.D. signal, as compared to wells where no Nanobody was added.

With B8 as the molecule, how does the “blocking of in vitro interaction of CD4 with gp120” value read?
Its value is “block”.

molecular target: T1, CXCR4 (Homo sapiens, UniProt P61073); assay: CXCL12-AF647 binding inhibition on SupT1 cells by flow cytometry; details: T-cells (SUPT-1); read-out: IC50 of blocking CXCL12AF647 binding to CXCR4
T1 sequence (P61073 whole entry): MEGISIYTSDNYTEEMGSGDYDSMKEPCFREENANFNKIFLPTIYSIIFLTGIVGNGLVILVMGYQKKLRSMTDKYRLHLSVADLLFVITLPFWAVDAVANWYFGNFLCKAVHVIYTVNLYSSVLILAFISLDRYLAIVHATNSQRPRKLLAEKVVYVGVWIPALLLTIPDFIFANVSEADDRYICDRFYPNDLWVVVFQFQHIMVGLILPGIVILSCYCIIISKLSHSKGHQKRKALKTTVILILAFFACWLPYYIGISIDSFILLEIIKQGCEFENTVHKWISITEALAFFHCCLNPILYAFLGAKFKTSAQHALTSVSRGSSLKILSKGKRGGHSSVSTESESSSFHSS

For B9, which IC50 is on record?
Its IC50 is 0.97 nM.

molecular target: T1, CXCR4; assay: [125I]-CXCL12 radio-ligand displacement on membranes of HEK293 cells transfected with CXCR4; assay type: binding; details: 75 pM [125I]-CXCL12
Protocol: To this end, CXCR4 Nanobodies were analysed for their binding to HEK293T-CXCR4 cells, and their ability to compete with the ligand CXCL12 (or SDF-1a) for receptor binding in a radio-ligand displacement assay. The sequences of the respective CXCR4 Nanobodies are depicted in Table 3.1A.
Non-specific binding was determined in presence of 100 nM cold SDF-1. The assay was performed three times, and average percentages of SDF-1 inhibition and Ki values were calculated (Table 3.1B).

For B1, which “[125I] SDF-1 displacement on CXCR4-Hek pKi +/SEM (n = 3)” value is on record?
The value was 9.21 +/− 0.12.

For B2, which “[125I] SDF-1 displacement on CXCR4-Hek pKi +/SEM (n = 3)” value is on record?
The value was 8.78 +/− 0.24.

Which “[125I] SDF-1 displacement on CXCR4-Hek pKi +/SEM (n = 3)” value does the source give for B3 here?
The value was 8.29 +/− 0.11.

For B4, which “[125I] SDF-1 displacement on CXCR4-Hek pKi +/SEM (n = 3)” value is on record?
Its value is 8.12 +/− 0.08.

Which “[125I] SDF-1 displacement on CXCR4-Hek pKi +/SEM (n = 3)” value does the source give for B5 here?
Its value is 7.93 +/− 0.41.

For B6, which “[125I] SDF-1 displacement on CXCR4-Hek pKi +/SEM (n = 3)” value is on record?
Its value is 8.27 +/− 0.05.

Which “[125I] SDF-1 displacement on CXCR4-Hek pKi +/SEM (n = 3)” value does the source give for B7 here?
The value was 8.63 +/− 0.02.

molecular target: T1, CXCR4; assay: Displacement of biotinylated SDF-1 on Caki cells expressing hCXCR4, flow cytometry; assay type: binding; details: 30 nM biotinylated SDF-1
Protocol: In addition, CXCR4 Nanobodies were analysed for ligand competition by displacement of biotinylated SDF-1 on transient transfected Caki cells expressing hCXCR4 in flow cytometry. To this end, serial dilutions of Nanobodies were pre-incubated with 30 nM of biotinylated SDF-1 (R&D Systems Fluorikine kit) and incubated to Caki-CXCR4 cells for 1 hour at 4C, after which ligand binding was visualised using extravidin-PE. The biotin-SDF-1 competitor concentration used in this assay was below the EC50 value obtained in dose-titration, where IC50 values should reflect the Ki. Ligand displacement IC50 values were calculated, and compared to the NL4.3 (X4) neutralization potencies.

Which “ligand displacement to CXCR4” value does the source give for B10 here?
Its value is “hardly any ligand displacement”.

test system: CXCR4-using (X4) HIV-1 clone NL4.3; assay: microbe, parasite or virus in culture; assay type: cell-based; details: Example 10

With B11 as the molecule, how does the “IC50 HIV1 neutralisation NL4.3 in MT-4 cells, panel of CXCR4 Nanobodies” value read?
The value was “sub-nanoMolar range”.
